Experimental data: patent US20240336909

B1: Neutrophil Elastase (protein)
chain: IVGGRRARPHAWPFMVSLQLRGGHFCGATLIAPNFVMSAAHCVANVNVRAVRVVLGAHNLSRREPTRQVFAVQRIFENGYDPVNLLNDIVILQLNGSATINANVQVAQLPAQGRRLGNGVQCLAMGWGLLGRNRGIASVLQELNVTVVTSLCRRSNVCTLVRGRQAGVCFGDSGSPLVCNGLIHGIASFVRGGCASGLYPDAFAPVAQFVNWIDSIIQ
B2: MMP-2 (protein)
chain: YNFFPRKPKWDKNQITYRIIGYTPDLDPETVDDAFARAFQVWSDVTPLRFSRIHDGEADIMINFGRWEHGDGYPFDGKDGLLAHAFAPGTGVGGDSHFDDDELWTLGEGQVVRVKYGNADGEYCKFPFLFNGKEYNSCTDTGRSDGFLWCSTTYNFEKDGKYGFCPHEALFTMGGNAEGQPCKFPFRFQGTSYDSCTTEGRTDGYRWCGTTEDYDRDKKYGFCPETAMSTVGGNSEGAPCVFPFTFLGNKYESCTSAGRSDGKMWCATTANYDDDRKWGFCPDQGYSLFLVAAHEFGHAMGLEHSQDPGALMAPIYTYTKNFRLSQDDIKGIQELYGASPDIDLGTGPTPTLGPVTPEICKQDIVFDGIAQIRGEIFFFKDRFIWRTVTPRDKPMGPLLVATFWPELPEKIDAVYEAPQEEKAVFFAGNEYWIYSASTLERGYPKPLTSLGLPPDVQRVDAAFNWSKNKKTYIFAGDKFWRYNEVKKKMDPGFPKLIADAWNAIPDNLDAVVDLQGGGHSYFFKGAYYLKLENQSLKSVKFGSIKSDWLGC
B3: Matriptase (protein)
chain: VVGGTDADEGEWPWQVSLHALGQGHICGASLISPNWLVSAAHCYIDDRGFRYSDPTQWTAFLGLHDQSQRSAPGVQERRLKRIISHPFFNDFTFDYDIALLELEKPAEYSSMVRPICLPDASHVFPAGKAIWVTGWGHTQYGGTGALILQKGEIRVINQTTCENLLPQQITPRMMCVGFLSGGVDSCQGDSGGPLSSVEADGRIFQAGVVSWGDGCAQRNKPGVYTRLPLFRDWIKENTGV
B4: Cathepsin G (protein)
chain: IIGGRESRPHSRPYMAYLQIQSPAGQSRCGGFLVREDFVLTAAHCWGSNINVTLGAHNIQRRENTQQHITARRAIRHPQYNQRTIQNDIMLLQLSRRVRRNRNVNPVALPRAQEGLRPGTLCTVAGWGRVSMRRGTDTLREVQLRVQRDRQCLRIFGSYDPRRQICVGDRRERKAAFKGDSGGPLLCNNVAHGIVSYGKSSGVPPEVFTRVSSFLPWIRTTMRS

Target: AxCT mask27 EGFR EH104 L001 version 1

Protein | Percent cleavage
B1 | 34%
B2 | 71%
B3 | 37%
B4 | 0%

Target: AxCT mask27 EGFR EH104 L040 version 1

Protein | Percent cleavage
B1 | 13%
B2 | 60%
B3 | 67%
B4 | 0%

Target: AxCT mask27 EGFR EH104 L041 version 1

Protein | Percent cleavage
B1 | 0%
B2 | 51%
B3 | 62%
B4 | 0%

Target: AxCT mask27 EGFR EH104 L043 version 1

Protein | Percent cleavage
B1 | 7%
B2 | 27%
B3 | 59%
B4 | 0%

Target: AxCT mask27 EGFR EH104 L054 version 1

Protein | Percent cleavage
B1 | 23%
B2 | 59%
B3 | 37%
B4 | 0%

Target: AxCT mask27 EGFR EH104 L055 version 1

Protein | Percent cleavage
B1 | 9%
B2 | 35%
B3 | 53%
B4 | 0%

Target: AxCT mask27 EGFR EH104 L056 version 1

Protein | Percent cleavage
B1 | 14%
B2 | 51%
B3 | 39%
B4 | 0%

Target: AxCT mask27 EGFR EH104 L057 version 1

Protein | Percent cleavage
B1 | 28%
B2 | 47%
B3 | 36%
B4 | 0%

Target: AxCT mask27 EGFR EH104 L058 version 1

Protein | Percent cleavage
B1 | 9%
B2 | 62%
B3 | 23%
B4 | 0%

Target: AxCT mask27 EGFR EH104 L059 version 1

Protein | Percent cleavage
B1 | 15%
B2 | 39%
B3 | 33%
B4 | 8%

Target: AxCT mask27 EGFR EH104 L060 version 1

Protein | Percent cleavage
B1 | 10%
B2 | 27%
B3 | 62%
B4 | 0%

Target: AxCT mask27 EGFR EH104 L061 version 1

Protein | Percent cleavage
B1 | 19%
B2 | 43%
B3 | 20%
B4 | 0%

Target: AxCT mask27 EGFR EH104 L062 version 1

Protein | Percent cleavage
B1 | 8%
B2 | 63%
B3 | 52%
B4 | 0%

Target: AxCT mask27 EGFR EH104 L063 version 1

Protein | Percent cleavage
B1 | 9%
B2 | 31%
B3 | 49%
B4 | 0%

Target: AxCT mask27 EGFR EH104 L064 version 1

Protein | Percent cleavage
B1 | 30%
B2 | 63%
B3 | 0%
B4 | 0%

Target: AxCT mask27 EGFR EH104 L065 version 1

Protein | Percent cleavage
B1 | 10%
B2 | 71%
B3 | 0%
B4 | 0%

Target: AxCT mask27 EGFR EH104 L066 version 1

Protein | Percent cleavage
B1 | 9%
B2 | 25%
B3 | 0%
B4 | 0%

Target: AxCT mask27 EGFR EH104 L067 version 1

Protein | Percent cleavage
B1 | 32%
B2 | 34%
B3 | 0%
B4 | 0%

Target: AxCT mask27 EGFR EH104 L068 version 1

Protein | Percent cleavage
B1 | 19%
B2 | 48%
B3 | 0%
B4 | 0%

Target: AxCT mask27 EGFR EH104 L069 version 1

Protein | Percent cleavage
B1 | 22%
B2 | 29%
B3 | 0%
B4 | 12%

Target: AxCT mask27 EGFR EH104 L070 version 1

Protein | Percent cleavage
B1 | 11%
B2 | 22%
B3 | 13%
B4 | 0%

Target: AxCT mask27 EGFR EH104 L071 version 1

Protein | Percent cleavage
B1 | 26%
B2 | 39%
B3 | 0%
B4 | 0%

Target: AxCT mask27 EGFR EH104 L072 version 1

Protein | Percent cleavage
B1 | 10%
B2 | 73%
B3 | 0%
B4 | 0%

Target: AxCT mask27 EGFR EH104 L073 version 1

Protein | Percent cleavage
B1 | 9%
B3 | 0%
B4 | 0%

Target: AxCT mask27 EpCAM H90 L001 version 1

Protein | Percent cleavage
B1 | 44%
B2 | 104%
B3 | 42%
B4 | 0%

Target: AxCT mask27 EpCAM H90.2 L040 version 1

Protein | Percent cleavage
B1 | 9%
B2 | 90%
B3 | 93%
B4 | 0%

Target: AxCT mask27 EpCAM H90.2 L041 version 1

Protein | Percent cleavage
B1 | 0%
B3 | 80%
B4 | 0%

Target: AxCT mask27 EpCAM H90.2 L043 version 1

Protein | Percent cleavage
B1 | 0%
B2 | 39%
B3 | 79%
B4 | 0%

Target: AxCT mask27 EpCAM H90.2 L059 version 1

Protein | Percent cleavage
B1 | 14%
B2 | 55%
B3 | 39%
B4 | 6%

Target: AxCT mask27 EpCAM H90.2 L060 version 1

Protein | Percent cleavage
B1 | 7%
B2 | 40%
B3 | 92%
B4 | 0%

Target: AxCT mask27 EpCAM H90.2 L061 version 1

Protein | Percent cleavage
B1 | 14%
B2 | 74%
B3 | 22%
B4 | 0%

Target: AxCT mask27 EpCAM H90.2 L063 version 1

Protein | Percent cleavage
B1 | 0%
B2 | 36%
B3 | 68%
B4 | 0%

Target: AxCT mask27 EpCAM H90.2 L064 version 1

Protein | Percent cleavage
B1 | 32%
B2 | 79%
B3 | 0%
B4 | 0%

Target: AxCT mask27 EpCAM H90.2 L073 version 1

Protein | Percent cleavage
B1 | 10%
B2 | 17%
B3 | 0%
B4 | 0%

Target: AxCT mask27 EpCAM H90.2 L075 version 1

Protein | Percent cleavage
B1 | 0%
B2 | 0%
B3 | 0%
B4 | 8%

Target: AxCT mask27 EpCAM H90.2 L076 version 1

Protein | Percent cleavage
B1 | 6%
B2 | 35%
B3 | 0%
B4 | 0%

Target: AxCT mask27 EpCAM H90.2 NCLV

Protein | Percent cleavage
B1 | 0%
B2 | 0%
B3 | 0%
B4 | 0%
